Data from paper PMC8139424.

Target: S2 fragment of the S protein (SARS-CoV-2)
Test: SEC

Work on “S2 fragment of the S protein (domain or fragment)” yielded a stoichiometry N of 3.
